FireProtDB
Where “and” joins values, the source holds several entries; their conditions need not be identical. Equal entries are not always repeated.

B1: Thioredoxin, P80579 (parent)
chain: ATMTLTDANFQQAIQGDKPVLVDFWAAWCGPCRMMAPVLEEFAEAHADKVTVAKLNVDENPETTSQFGIMSIPTLILFKGGRPVKQLIGYQPKEQLEAQLADVLQ
B2: chitinase, Q54276 (parent)
chain: MSTRKAVIGYYFIPTNQINNYTETDTSVVPFPVSNITPAKAKQLTHINFSFLDINSNLECAWDPATNDAKARDVVNRLTALKAHNPSLRIMFSIGGWYYSNDLGVSHANYVNAVKTPASRAKFAQSCVRIMKDYGFDGVDIDWEYPQAAEVDGFIAALQEIRTLLNQQTITDGRQALPYQLTIAGAGGAFFLSRYYSKLAQIVAPLDYINLMTYDLAGPWEKVTNHQAALFGDAAGPTFYNALREANLGWSWEELTRAFPSPFSLTVDAAVQQHLMMEGVPSAKIVMGVPFYGRAFKGVSGGNGGQYSSHSTPGEDPYPSTDYWLVGCEECVRDKDPRIASYRQLEQMLQGNYGYQRLWNDKTKTPYLYHAQNGLFVTYDDAESFKYKAKYIKQQQLGGVMFWHLGQDNRNGDLLAALDRYFNAADYDDSQLDMGTGLRYTGVGPGNLPIMTAPAYVPGTTYAQGALVSYQGYVWQTKWGYITSAPGSDSAWLKVGRVA
B3: Phosphocarrier protein HPr, P42013 (parent)
chain: MAEKTFKVVSDSGIHARPATILVQTASKFNSEIQLEYNGKTVNLKSIMGVMSLGIPKGATIKITAEGADAAEAMAALTDTLAKEGLAE
B4: E188K|A142V|H125Y, Q88HV5 (parent)
chain: MPFQQGLLATPVPAHARHLFFTLQSPEALPAALDALLPQVDGKQLLLGVGAPLAKALGREIPGLRPFPLLDAAVENPSTQHALWLWLRGDERGDLLLRTQALEQALAPALSLADSVDGFLHRGGHDLTGYEDGTENPTDEEAVQAAIAADGSSFAAFQLWKHDLQYFKSLPQADQDNIIGRRLSDNEELDDAPASAHVKRTAQESFEPEAFMVRRSVSWADQRGAGLAFVALGKSFEAFEVQLRRMSGLEDGIIDGLYRFSRPLTGGYYWCPPMSETGVDLSPLLRA
B5: Elongation factor Ts, P43895 (parent)
chain: MSQMELIKKLREATGAGMMDVKRALEDAGWDEEKAVQLLRERGAMKAAKKADREAREGIIGHYIHHNQRVGVLVELNCETDFVARNELFQNLAKDLAMHIAMMNPRYVSAEEIPAEELEKERQIYIQAALNEGKPQQIAEKIAEGRLKKYLEEVVLLEQPFVKDDKVKVKELIQQAIAKIGENIVVRRFCRFELGA
B6: V92L, O26594 (parent)
chain: MRCAFMKKYILIVMLALMVAGCVSEDGNYTYNEGVQDSNVDNPVNDSWTSDSQDKVNDTAEKKSSYEASGSCYHVVDGDTIDVEGVGRIRLVGVNTPERGQPGYREAKDFVKSMCLGRTVQLDIDDAKRHDRYGRVLAVVYVDGVNLNRELLRRGYAEVMYIPPSEFNPYGWT
B7: Guanyl-specific ribonuclease T1, P00651 (parent)
chain: MMYSKLLTLTTLLLPTALALPSLVERACDYTCGSNCYSSSDVSTAQAAGYQLHEDGETVGSNSYPHKYNNYEGFDFSVSSPYYEWPILSSGDVYSGGSPGADRVVFNENNQLAGVITHTGASGNNFVECT
B8: Holocytochrome-c synthase, P06182 (parent)
chain: MGWFWADQKTTGKDIGGAAVSSMSGCPVMHESSSSSPPSSECPVMQGDNDRINPLNNMPELAASKQPGQKMDLPVDRTISSIPKSPDSNEFWEYPSPQQMYNAMVRKGKIGGSGEVAEDAVESMVQVHNFLNEGCWQEVLEWEKPHTDESHVQPKLLKFMGKPGVLSPRARWMHLCGLLFPSHFSQELPFDRHDWIVLRGERKAEQQPPTFKEVRYVLDFYGGPDDENGMPTFHVDVRPALDSLDNAKDRMTRFLDRMISGPSSSSSAP
B9: Phosphocarrier protein HPr, P08877 (parent)
chain: MAQKTFKVTADSGIHARPATVLVQTASKYDADVNLEYNGKTVNLKSIMGVMSLGIAKGAEITISASGADENDALNALEETMKSEGLGE
B10: Pseudoazurin, P80401 (parent)
chain: MFHHSLAAAAAALLALAAPGFAATHEVHMLNKGESGAMVFEPAFVRAEPGDVINFVPTDKSHNVEAIKEILPEGVESFKSKINESYTLTVTEPGLYGVKCTPHFGMGMVGLVQVGDAPENLDAAKTAKMPKKARERMDAELAQVN

Variants of: B1
Settings: Alicyclobacillus acidocaldarius subsp. acidocaldarius; pH 7; Thermal; CD; Sodium phosphate 10 mM; reversible: yes; structure 1QUW; whole UniProt chain shown

Variant | Tm
K18G | 78.1 °C and 78.8 °C
K18G R82E | 73.1 °C
R82E | 81.5 °C and 81.4 °C

Same assay, conditions: Alicyclobacillus acidocaldarius subsp. acidocaldarius; pH 7; Urea; CD; Sodium phosphate 10 mM; reversible: yes; structure 1QUW; whole UniProt chain shown

Variant | denaturant midpoint (higher = more stable)
K18G | 5.2 M
K18G R82E | 4.6 M
R82E | 5.5 M

Same assay, conditions: Alicyclobacillus acidocaldarius subsp. acidocaldarius; pH 7; GdHCl; CD; Sodium phosphate 10 mM; reversible: yes; structure 1QUW; whole UniProt chain shown

Variant | denaturant midpoint (higher = more stable)
K18G R82E | 2.4 M
R82E | 2.7 M

Variants of: B2
Settings: Serratia marcescens; pH 8; Thermal; CD; sodium phosphate 20 mM; reversible: No; structure 1E6N; whole UniProt chain shown

Variant | Tm | change of melting temperature, mutant - wild type (higher = more stable)
G188A A234P | 64.1 °C | 4.2 °C

Variants of: B3
Settings: Geobacillus stearothermophilus; pH 7; 25 °C; Urea; CD; sodium phosphate 10 mM; reversible: yes; structure 1Y4Y; whole UniProt chain shown

Variant | ddG of mutation (higher = less stable) | denaturant m value | unfolding free energy
F29W | 0.86 kcal/mol | 1.06 kcal/mol/M | 7.37 kcal/mol

Same assay, conditions: Geobacillus stearothermophilus; pH 7; Thermal; CD; sodium phosphate 10 mM; NaCl 750 mM; reversible: yes; structure 1Y4Y; whole UniProt chain shown

Variant | Tm
F29W | 85.3 °C

Same assay, conditions: Geobacillus stearothermophilus; pH 7; Thermal; CD; sodium phosphate 10 mM; reversible: yes; structure 1Y4Y; whole UniProt chain shown

Variant | Tm | change of melting temperature, mutant - wild type (higher = more stable)
F29W | 83.7 °C | -4.4 °C

Variants of: B4
Settings: Pseudomonas putida (strain ATCC 47054 / DSM 6125 / CFBP 8728 / NCIMB 11950 / KT2440); pH 7.6; Fluorescence spectroscopy; whole UniProt chain shown

Variant | Tm
E188K A142V H125Y | 59 °C
E188K H125Y | 61 °C

Variants of: B5
Settings: Thermus thermophilus (strain ATCC 27634 / DSM 579 / HB8); pH 7; Thermal; CD; Phosphate 10 mM; reversible: No; structure 1TFE; whole UniProt chain shown

Variant | Tm | change of melting temperature, mutant - wild type (higher = more stable)
C190A | 105 °C | -10 °C

Variants of: B6
Settings: Methanothermobacter thermautotrophicus (strain ATCC 29096 / DSM 1053 / JCM 10044 / NBRC 100330 / Delta H); pH 7; 20 °C; GdnHCl; Fluorescence; Sodium phosphate sodium chloride 25 mM 100 mM; whole UniProt chain shown

Variant | ddG of mutation (higher = less stable) | denaturant m value | denaturant midpoint (higher = more stable) | unfolding free energy
V92L | 1.1 kcal/mol | 1.03 kcal/mol/M | 0.2 M | 1.3 kcal/mol

Variants of: B7
Settings: Aspergillus oryzae (strain ATCC 42149 / RIB 40); pH 7.4; 25 °C; Urea; Fluorescence; Sodium acetate 50 mM; reversible: yes; structure 1RN1; whole UniProt chain shown

Variant | denaturant m value | denaturant midpoint (higher = more stable) | unfolding free energy
A47G G49A | 1.37 kcal/mol/M | 4.7 M | 6 kcal/mol
A47G | 1.3 kcal/mol/M | 5.5 M | 7.1 kcal/mol

Same assay, conditions: Aspergillus oryzae (strain ATCC 42149 / RIB 40); pH 7; Thermal; Absorbance; Sodium cacodylate 10 mM; reversible: yes; structure 1RN1; whole UniProt chain shown

Variant | Tm | change of melting temperature, mutant - wild type (higher = more stable)
Y71W W85Y | 53.1 °C | -4.5 °C
W85Y | 53.4 °C | -4.2 °C
Y71W | 56 °C | -1.6 °C

Same assay, conditions: Aspergillus oryzae (strain ATCC 42149 / RIB 40); pH 7; Thermal; Absorbance; Sodium cacodylate-D2O 100 mM; reversible: yes; structure 1RN1; whole UniProt chain shown

Variant | Tm | change of melting temperature, mutant - wild type (higher = more stable)
W85Y | 65 °C | 20 °C

Same assay, conditions: Aspergillus oryzae (strain ATCC 42149 / RIB 40); pH 7; 48.6 °C; Thermal; Fluorescence; MOPS 30 mM; structure 1RN1; whole UniProt chain shown

Variant | ddG of mutation (higher = less stable)
Q51K E84A | -0.06 kcal/mol
E84A | 0.78 kcal/mol
Q51K | -0.93 kcal/mol

Same assay, conditions: Aspergillus oryzae (strain ATCC 42149 / RIB 40); pH 7; Thermal; Fluorescence; MOPS 30 mM; structure 1RN1; whole UniProt chain shown

Variant | Tm | change of melting temperature, mutant - wild type (higher = more stable) | unfolding enthalpy (van 't Hoff)
Q51K E84A | 48.8 °C | -0.5 °C | 93 kcal/mol
Q51K | 51.7 °C | 3.4 °C | 107 kcal/mol

Same assay, conditions: Aspergillus oryzae (strain ATCC 42149 / RIB 40); pH 5; 10 °C; GdnHCl; CD; Na acetate 0.1 M; structure 1RN1; whole UniProt chain shown

Variant | denaturant m value | unfolding free energy
S80G P81N | 2.8 kcal/mol/M | 11.2 kcal/mol

Same assay, conditions: Aspergillus oryzae (strain ATCC 42149 / RIB 40); pH 8; 15 °C; Urea; Absorbance; Tris-HCl 0.1 M; NaCl 2.8 M; structure 1RN1; whole UniProt chain shown

Variant | unfolding free energy
S80G P81N | 5.98 kcal/mol

Same assay, conditions: Aspergillus oryzae (strain ATCC 42149 / RIB 40); pH 8; 15 °C; Urea; CD; Tris-HCl 0.1 M; NaCl 2.5 M; structure 1RN1; whole UniProt chain shown

Variant | unfolding free energy
S80G P81N | 2.44 kcal/mol

Same assay, conditions: Aspergillus oryzae (strain ATCC 42149 / RIB 40); pH 7; 25 °C; Urea; Fluorescence; MOPS 30 mM; structure 1RN1; whole UniProt chain shown

Variant | ddG of mutation (higher = less stable) | denaturant m value | denaturant midpoint (higher = more stable) | unfolding free energy
E84A | 0.9 kcal/mol | 1.2 kcal/mol/M | 3.92 M | 4.72 kcal/mol
Q51K | -0.77 kcal/mol | 1.21 kcal/mol/M | 5.3 M | 6.39 kcal/mol

Same assay, conditions: Aspergillus oryzae (strain ATCC 42149 / RIB 40); pH 7; 25 °C; Thermal; CD; MOPS 30 mM; structure 1RN1; whole UniProt chain shown

Variant | ddG of mutation (higher = less stable)
D75H | -1.1 kcal/mol

Variants of: B8
Settings: Saccharomyces cerevisiae (strain ATCC 204508 / S288c); pH 6; Thermal; Absorbance; Sodium phosphate 100 mM; reversible: yes; whole UniProt chain shown

Variant | Tm | change of melting temperature, mutant - wild type (higher = more stable) | heat capacity change of unfolding | unfolding enthalpy (van 't Hoff)
N57I | 63.7 °C | 17.2 °C | 2 kcal/mol/K | 109 kcal/mol

Variants of: B9
Settings: Bacillus subtilis (strain 168); pH 7; 30 °C; Urea; CD; Potassium phosphate 50 mM; reversible: yes; structure 2HPR; whole UniProt chain shown

Variant | ddG of mutation (higher = less stable) | denaturant midpoint (higher = more stable)
S46D | -0.74 kcal/mol | 4.63 M

Same assay, conditions: Bacillus subtilis (strain 168); pH 7; 73.6 °C; Thermal; CD; Potassium phosphate 50 mM; reversible: yes; structure 2HPR; whole UniProt chain shown

Variant | ddG of mutation (higher = less stable)
S46D | -0.7 kcal/mol

Variants of: B10
Settings: Paracoccus pantotrophus; pH 7; 25 °C; Urea; CD; Sodium phosphate 20 mM; Na2SO4 0.5 M; reversible: yes; structure 1ADW; whole UniProt chain shown

Variant | denaturant m value
Y96W | 1.19 kcal/mol/M
